In patent US20140120109A1 (Regeneron, published 2014):

T1: human TL1A, soluble, CHO-expressed, residues 72-251 of SEQ ID NO:244 with N-terminal His6-tag (human, UniProt O95150 72-251)
T1 construct: also called hTL1A; hTL1A (CHO)
T1 sequence: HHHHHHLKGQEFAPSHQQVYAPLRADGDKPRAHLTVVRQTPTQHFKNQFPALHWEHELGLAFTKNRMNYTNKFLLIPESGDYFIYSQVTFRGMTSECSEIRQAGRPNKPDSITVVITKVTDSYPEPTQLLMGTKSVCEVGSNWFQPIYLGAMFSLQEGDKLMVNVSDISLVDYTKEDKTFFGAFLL

T2: cynomolgus monkey TL1A, soluble, CHO-expressed, residues 72-251 of SEQ ID NO:248 with N-terminal His6-tag (cynomolgus monkey (Macaca fascicularis), UniProt O95150 72-251 (human entry))
T2 construct: also called MfTL1A; MfTL1A (CHO)
T2 chain: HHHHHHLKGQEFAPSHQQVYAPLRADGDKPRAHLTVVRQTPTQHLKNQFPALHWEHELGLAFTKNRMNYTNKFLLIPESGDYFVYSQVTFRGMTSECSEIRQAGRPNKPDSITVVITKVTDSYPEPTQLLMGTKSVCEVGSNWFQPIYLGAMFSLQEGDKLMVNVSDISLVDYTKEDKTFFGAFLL

T3: rat TL1A, soluble, CHO-expressed, residues 76-252 of SEQ ID NO:258 with N-terminal His6-tag (rat, UniProt Q8K3Y7 76-252)
T3 construct: also called rTL1A; rTL1A (CHO)
T3 sequence: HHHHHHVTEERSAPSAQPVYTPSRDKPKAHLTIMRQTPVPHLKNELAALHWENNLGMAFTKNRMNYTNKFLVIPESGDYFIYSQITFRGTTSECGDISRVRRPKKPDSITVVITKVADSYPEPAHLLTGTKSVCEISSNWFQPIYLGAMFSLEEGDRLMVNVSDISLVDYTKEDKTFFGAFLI


Assays:
[1] = biological target: T1, human TL1A, soluble, CHO-expressed, …; experiment: SPR 25C, mAb captured; kd set at 1e-6 1/s; 25 C; kd set at 1x10^-6 1/s
Method: (§1) Measurements were conducted on a T100 BIACORE™ instrument. […] Kinetic association (kₐ) and dissociation (kd) rate constants were determined by fitting the data to a 1:1 binding model using BIAevaluation 4.1 curve fitting software (BIAcore Life Sciences). Molar concentrations of TL1A/Fhm used in the data fitting assumed a monomeric state for TL1A in solution. Binding dissociation equilibrium constants (KD) and dissociative half-lives (t_{1/2}) were calculated from the kinetic rate constants as: KD (M)=kd/kₐ; and t_{1/2} (min)=[In2/(60*kd)].

[2] = biological target: T2, cynomolgus monkey TL1A, soluble, …; experiment: SPR 25C, mAb captured; SPR, 25 C
[3] = biological target: T2, cynomolgus monkey TL1A, soluble, …; experiment: SPR 37C, mAb captured; SPR, 37 C
Method: as §1

[4] = biological target: T2, cynomolgus monkey TL1A, soluble, …; experiment: ELISA, blocks MfTL1A (500 pM) binding hDR3-Fc; blocking of MfTL1A binding to hDR3
Method: The ability of antibodies to block human TL1A binding to its cognate receptors, the DR3 and DcR3 receptors, was measured using a competition sandwich ELISA. In addition, blocking of a human TL1A variant FHM (human TL1A Q167R) and the cynomolgus monkey (Macaca fascicularis) TL1A (MfTL1A) protein binding to the human DR3 or DcR3 receptors was measured in the same manner. Constant amounts of biotinylated human TL1A or FHM (both expressed with a 6-His tag in CHO cells) or biotinylated MfTL1A (expressed in CHO cells) were separately titrated with varying amounts of antibodies. The antibody-protein complexes were incubated in solution (1 hr, 25° C.) and then transferred to microtiter plates coated with human DR3 (hDR3) or human DcR3 (hDcR3) expressed as human IgG1 Fc fusion proteins. After one hour at 25° C. the wells were washed, and bound human or monkey TL1A was detected with streptavidin conjugated with horseradish peroxidase (HRP). Wells were developed with a TMB solution to produce a colorimetric reaction and quenched with aqueous sulfuric acid before reading absorbance at 450 nm on a Perkin-Elmer Victor X5 plate reader. A sigmoidal dose-response curve was fit to the data using the Prism™ data analysis package. […]

[5] = biological target: T3, rat TL1A, soluble, CHO-expressed, …; experiment: SPR 37C, mAb captured; kd set at 1e-6 1/s
How it was run: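 Biacore T100 SPR with captured mAb and soluble TL1A/Fhm analyte; ka and kd fitted to a 1:1 model assuming monomeric TL1A. KD = kd/ka; t1/2 (min) = ln2/(60·kd).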

| Kd [1] | Kd [2] | t1/2 [2] | Kd [3] | t1/2 [3] | IC50 [4] | Kd [5] | t1/2 [5] | Binder |
| --- | --- | --- | --- | --- | --- | --- | --- | --- |
| ≤ 0.0158 nM | 8.6 nM | 21 min | 17.1 nM | 11 min | 5.21 nM | – | – | H4H1750P (antibody, human IgG4 S228P, V domains shown) VH: QVQLVESGGGVVQPGRSLRLSCVASGFTFSNYGMHWVRQAPGKGLEWVAVISYDGNNDLYSDSVKGRFTISRDNAKNALSLQMTSLRAEDTAVYYCARDSTMTPYYYHGIDVWGQGTTVTVSA VL: DIQMTQSPSSLSASVGDRVTITCRASQDIRNDLGWYQQKPGKAPKRLIYAASSLQSGVPSRFSGSGSGTDFTLTISSLQPEDFATYYCLQHNSYPPTFGQGTKVEIK |
| – | – | – | – | – | – | ≤ 0.00061 nM | ≥ 192 h | H4H1818N (antibody, human IgG4 S228P, V domains shown, human IgG4(S108P) form of H2M1818N) VH: RLQLVESGGGLVKPGGSLKLSCAASGFTISDYYMSWIRQAPGKGLEWVSYIGGSGSTIYYADSVKGRFTISRDNAKNSLYLQMNSLRAEDTAVYYCAREDADSYYYYGMDVWGQGTTVTVSS VL: not shown |
